Target: recombinant human NPR3 protein, extracellular domain amino acids Gly27-Ser482 fused to the Fc portion of mouse IgG2a at the NPR3 C-terminus (human; mouse) (UniProt P17342)
Experiment: ELISA-based blocking assay on coated hNPR3-mFc, competitor biotin-hANP 200 pM; categorized as a non-blocker

Sequence of UniProt P17342 (P17342 27-482 limits assumed): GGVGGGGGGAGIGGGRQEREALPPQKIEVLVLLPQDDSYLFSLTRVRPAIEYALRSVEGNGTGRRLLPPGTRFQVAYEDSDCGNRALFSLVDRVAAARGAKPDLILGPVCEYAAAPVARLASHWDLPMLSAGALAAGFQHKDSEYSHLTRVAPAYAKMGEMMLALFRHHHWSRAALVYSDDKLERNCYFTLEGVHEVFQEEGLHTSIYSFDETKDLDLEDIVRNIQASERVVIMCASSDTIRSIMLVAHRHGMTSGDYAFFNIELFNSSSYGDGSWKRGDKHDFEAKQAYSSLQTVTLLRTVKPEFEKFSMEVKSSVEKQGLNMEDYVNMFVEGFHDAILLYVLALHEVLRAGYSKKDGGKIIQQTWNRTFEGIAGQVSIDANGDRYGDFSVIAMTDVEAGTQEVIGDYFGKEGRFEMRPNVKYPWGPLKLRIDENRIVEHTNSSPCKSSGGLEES

percent blockade: 32%
Substance: non-binding human IgG1 isotype control antibody (ELISA blocking assay)
